Results as given in patent publication US20230265217A1.

B1: 7-26 (VHH)
VHH: EVQLVESGGGLVQPGGSLRLSCAASGSTFSINAMGWFRQAPGKEREFVAGITSSGGYTNYADSVKGRFTISADNSKNTAYLQMNSLKPEDTAVYYCAADGVPEYSDYASGPVWGQGTLVTVSS
B2: 3-31 (VHH)
VHH: B1 VHH

How the values were obtained:
Conditions in all cases: remark: other sources report otherwise
[1] = target: S1 RBD L452R E484Q (Acro) (SARS-CoV-2), P0DTC2; assay: Carterra SPR
[2] = target: T1, SARS-CoV-2 S protein trimer (Alpha B.1.1.7 UK variant) [SPN-C52H6] (SARS-CoV-2), P0DTC2; assay: binding kinetics, Carterra SPR
[3] = target: T2, SARS-CoV-2 S protein trimer (Beta B.1.351 SA variant) [SPN-C52Hk] (SARS-CoV-2), P0DTC2; assay: binding kinetics, Carterra SPR
[4] = target: T3, SARS-CoV-2 S protein trimer (Delta B.1.617.2 India variant) [SPN-C52He] (SARS-CoV-2), P0DTC2; assay: binding kinetics, Carterra SPR
[5] = target: T4, SARS-CoV-2 S protein trimer (Kappa B.1.617.1 India variant) [SPN-C52Hr] (SARS-CoV-2), P0DTC2; assay: binding kinetics, Carterra SPR
[6] = target: SARS-CoV-2 S protein trimer [SPN-C52H9] (SARS-CoV-2), P0DTC2; assay: binding kinetics, Carterra SPR
[7] = target: T1, SARS-CoV-2 S protein trimer (Alpha …); assay: Carterra SPR
[8] = target: T2, SARS-CoV-2 S protein trimer (Beta …); assay: Carterra SPR
[9] = target: T3, SARS-CoV-2 S protein trimer (Delta …); assay: Carterra SPR
[10] = target: T4, SARS-CoV-2 S protein trimer (Kappa …); assay: Carterra SPR
[11] = target: SARS-CoV-2 S protein trimer (P.1 Gamma Brazil variant) [SPN-C52Hg] (SARS-CoV-2), P0DTC2; assay: Carterra SPR
[12] = target: SARS-CoV-2 S protein trimer [SPN-C52H7] (SARS-CoV-2), P0DTC2; assay: Carterra SPR

Binder	Kd [1]	Kd [2]	koff [2]	kon [2]	Kd [3]	koff [3]	kon [3]	Kd [4]	koff [4]	kon [4]	Kd [5]	koff [5]	kon [5]	Kd [6]	koff [6]	kon [6]	other results
B1	18 nM	< 0.00965 nM	< 1e-05 s⁻¹	1.04e+06 M⁻¹ s⁻¹	< 8.08 pM	< 1e-05 s⁻¹	1.24e+06 M⁻¹ s⁻¹	< 0.0104 nM	< 1e-05 s⁻¹	958000 M⁻¹ s⁻¹	< 8.52 pM	< 1e-05 s⁻¹	1.17e+06 M⁻¹ s⁻¹	< 0.011 nM	< 1e-05 s⁻¹	911000 M⁻¹ s⁻¹	
B2	16.2 nM	< 0.0108 nM	< 1e-05 s⁻¹	925000 M⁻¹ s⁻¹	< 9.8 pM	< 1e-05 s⁻¹	1.02e+06 M⁻¹ s⁻¹	< 0.0107 nM	< 1e-05 s⁻¹	938000 M⁻¹ s⁻¹	< 10 pM	< 1e-05 s⁻¹	1e+06 M⁻¹ s⁻¹	< 0.0136 nM	< 1e-05 s⁻¹	734000 M⁻¹ s⁻¹	Kd [7]: 0.0143 nM; koff [7]: 1e-05 s⁻¹; kon [7]: 699000 M⁻¹ s⁻¹; Kd [8]: 0.0117 nM; koff [8]: 1e-05 s⁻¹; kon [8]: 851000 M⁻¹ s⁻¹; Kd [9]: 0.0134 nM; koff [9]: 1e-05 s⁻¹; kon [9]: 744000 M⁻¹ s⁻¹; Kd [10]: 0.0129 nM; koff [10]: 1e-05 s⁻¹; kon [10]: 777000 M⁻¹ s⁻¹; Kd [11]: < 0.012 nM; koff [11]: < 1e-05 s⁻¹; kon [11]: 834000 M⁻¹ s⁻¹; Kd [12]: < 0.0167 nM; koff [12]: < 1e-05 s⁻¹; kon [12]: 600000 M⁻¹ s⁻¹
